Our source for the pKa values is paper PMC7539298.

The target in data set [1] is Asp7 (UniProt position 678, …). The data set can be described thus: potentiometry. The conditions noted are these: 25 °C, 0.1 M (KNO3), none, 1.0 mM peptide in 4 mM HNO3/96 mM KNO3, under argon.
In data set [2] the target is Nterm5 (UniProt position 676, …). Kind of data set: potentiometry. Conditions: 25 °C; 0.1 M (KNO3); none; 1.0 mM peptide in 4 mM HNO3/96 mM KNO3, under argon; apo peptide (no metal).
The target in data set [3] is His6 (UniProt position 677, …). The data set can be described thus: potentiometry. The conditions noted are these: 25 °C; 0.1 M (KNO3); none; 1.0 mM peptide in 4 mM HNO3/96 mM KNO3, under argon; apo peptide (no metal).
Data set [4] deals with Tyr10 (UniProt position 681, …). Kind of data set: potentiometry. Conditions: 25 °C; 0.1 M (KNO3); none; 1.0 mM peptide in 4 mM HNO3/96 mM KNO3, under argon; apo peptide (no metal).
The target of data set [5] is Glu11 (UniProt position 682, …). The data set can be described thus: potentiometry. Conditions: 25 °C, 0.1 M (KNO3), none, 1.0 mM peptide in 4 mM HNO3/96 mM KNO3, under argon.
Data set [6] addresses Tyr10 (UniProt position 681, …). The data set can be described thus: other (circular dichroism). The conditions noted are these: 25 °C; none stated; titrated with concentrated NaOH; Cu(II)-bound: 0.9 mM Cu(II), 1.0 mM peptide.
Data set [7] has the same target. Kind of data set: UV-vis. Conditions: 25 °C; none stated; titrated with concentrated NaOH; Cu(II)-bound: 0.9 mM Cu(II), 1.0 mM peptide.
[8] abbreviates: Cu(II)-bound, mononuclear 3N complex (Arg5 N-terminal amine, Arg5-His6 amide N-, His6 imidazole, equatorial H2O), peptide:metal ratios 1:2, 1:1 and 1:0.5.

With RHDSG [Amyloid-beta peptide fragment 5-9 (Abeta5-9) (Homo sapiens)], the pKa in data set [1] (setting [8]) was 3.82; in data set [1] (apo peptide (no metal)), 3.17; in data set [2], 7.37; in data set [3] it was 6.13.
In the case of RHDSGYEV [Amyloid-beta peptide fragment 5-12 (Abeta5-12) (Homo sapiens)], the pKa in data set [1] (setting [8]) worked out at 3.23; in data set [1] (apo peptide (no metal)), 2.73; in data set [4] it was 10.08; in data set [2], 7.52; in data set [5] (setting [8]), 4.69; in data set [5] (apo peptide (no metal)) it was 4.37. Further, the pKa in data set [3] was 6.25; in data set [6], 8.89(3); in data set [7], 8.95(7).
Take RHDSGYEVHHQK [Amyloid-beta peptide fragment 5-16 (Abeta5-16) (Homo sapiens)]: the pKa in data set [1] (setting [8]) was found to be 3.212; in data set [1] (apo peptide (no metal)), 2.48; in data set [2], 7.60; in data set [5] (setting [8]), 4.169; in data set [5] (apo peptide (no metal)) it was 3.92.
